US20190352411A1 (ALLIGATOR BIOSCIENCE, published 2019)

Tests used:
[1] = molecular target: T1, recombinant human OX40 (R&D #1493-CD) (human, UniProt P43489 29-216, limits assumed); assay: ELISA, coated OX40
T1 construct: Coated on ELISA plates
T1 sequence (looked up): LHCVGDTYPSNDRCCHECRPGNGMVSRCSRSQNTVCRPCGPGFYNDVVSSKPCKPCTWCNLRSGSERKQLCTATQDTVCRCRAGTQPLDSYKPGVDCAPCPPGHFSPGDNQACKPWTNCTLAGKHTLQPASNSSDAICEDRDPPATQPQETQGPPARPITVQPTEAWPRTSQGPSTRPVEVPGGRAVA
Description: Binding to TNFR superfamily members for which ELISA methods had already been established (CD40 and OX40) was evaluated to detect potential propensity to cross react to non-target proteins.
ELISA plates (Greiner #655074) were coated with 50 μl/well of recombinant human OX40 (R&D #1493-CD), CD40-Fc (Ancell #504-820) or CD137 (R&D #838-4B) diluted to a final concentration of 0.5 μg/ml in PBS for 1 h at 37° C. or overnight at 4° C. Plates were washed with PBS+0.05% TWEEN20 (PBST), followed by block with PBST+1% bovine serum albumin (BSA). Antibody samples were prepared as serial 1/10 dilutions from 10-0.01 μg/ml in PBST+1% BSA and incubated for 1 h in room temperature, followed by detection using a horse radish peroxidase-conjugated anti-human kappa light chain antibody (AbD Serotec # STAR127P) and developed using SuperSignal ELISA Pico Chemiluminescent substrate (Pierce ThermoScientific #37069).

[2] = molecular target: T2, cynomolgus CD137 on transfected CHO cells (CHO-cyCD137) (cynomolgus (Macaca fascicularis); human); assay: flow cytometry; EC50 on CHO-cyCD137 against EC50 on CHO-huCD137
T2 construct: extracellular domain;domain: transmembrane and intracellular part; also called cyno CD137
T2 sequence (P25942 other isoform, or with tags, fused parts or gaps): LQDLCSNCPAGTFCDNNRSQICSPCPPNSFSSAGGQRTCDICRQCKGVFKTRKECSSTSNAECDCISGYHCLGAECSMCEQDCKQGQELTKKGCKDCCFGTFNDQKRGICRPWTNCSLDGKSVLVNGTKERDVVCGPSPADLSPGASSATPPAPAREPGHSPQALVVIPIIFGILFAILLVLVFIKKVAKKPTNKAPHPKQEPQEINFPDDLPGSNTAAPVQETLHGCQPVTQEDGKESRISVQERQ
Description: Binding and EC50 was determined using flow cytometric of CHO cells transfected with human CD137, cynomolgus CD137 or empty vector. The extracellular part of human or cynomolgus CD137 was fused to the transmembrane and intracellular part of human CD40 and cloned into pcDNA3.1. The vector was subsequently stably transfected into CHO cells. […] CD137-transfected and empty vector-transfected cells were incubated with CD137 antibodies for at least 1 h at 4° C. to saturate the binding. In order to minimize antibody internalization, 0.05% sodium azide was used in the incubation buffer and all work was performed on ice. The CD137 antibodies were detected using PE-conjugated anti-hIgG antibody (109-115-098, Jackson Immunoresearch laboratories), incubated for 30 min at 4° C. Directly after staining the cells were fixed with a paraformaldehyde solution (10× concentrate BD CellFIX, BD biosciences #340181). Cells were analyzed by flow cytometry using FACSVerse (BD Biosciences). The median fluorescence intensity (MFI) for each sample was determined and the dose response data was analysed using Graph Pad Prism.
MFI data was normalized for each antibody, where 0% is defined as the lowest value and 100% is the highest value in the dose titration for each antibody.

[3] = molecular target: T3, 1550: Human CD137 with mouse domains 1, 2A and 2B (aa 24-86) (human; mouse, UniProt P20334 24-85); assay: flow cytometry on transfected 293-F cells, human/mouse CD137 chimera
T3 construct: domain: domains 1, 2A and 2B (aa 24-86); Human/mouse chimera transiently expressed on FreeStyle 293-F cells; Limits of the human pieces are worked out from the printed aa range
T3 sequence (P20334 other isoform, or with tags, fused parts or gaps limits assumed): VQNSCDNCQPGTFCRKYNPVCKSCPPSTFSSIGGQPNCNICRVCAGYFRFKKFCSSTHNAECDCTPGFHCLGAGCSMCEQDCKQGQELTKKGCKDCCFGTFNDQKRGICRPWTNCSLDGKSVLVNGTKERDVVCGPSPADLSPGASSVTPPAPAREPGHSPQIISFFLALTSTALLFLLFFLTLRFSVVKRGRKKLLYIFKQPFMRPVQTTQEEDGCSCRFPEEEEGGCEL
Description: (§1) The ability of each antibody to bind to a panel of human/mouse CD137 chimeras expressed on the surface of transfected cells was analyzed by flow cytometry.
(§2) The chimeras were designed by exchanging domains or modules of the human CD137 with the corresponding mouse domain. Genes of CD137 human/mouse chimeras were synthesized (GenScript) and constructs cloned into pcDNA3.1 vector (Invitrogen) and transiently transfected into FreeStyle 293-F cells (Invitrogen). The transfected cells were incubated with CD137 antibodies and control antibodies, followed by incubation with anti-human IgG-PE (Jackson Immunoresearch) for detection and analyzed with FACS Verse (BD Biosciences). Binding to the different chimeric constructs was calculated as relative MFI compared to the binding of the isotype control, followed by normalization to the full-length human CD137 construct to minimize the effect of affinity differences between individual antibodies.

[4] = molecular target: T4, 1551: Human CD137 with mouse domains 2A, 2B and 3A (aa 47-96) (human; mouse, UniProt P20334 46-95); assay: as above
T4 construct: domain: domains 2A, 2B and 3A (aa 47-96); Human/mouse chimera transiently expressed on FreeStyle 293-F cells
T4 sequence (P20334 other isoform, or with tags, fused parts or gaps limits assumed): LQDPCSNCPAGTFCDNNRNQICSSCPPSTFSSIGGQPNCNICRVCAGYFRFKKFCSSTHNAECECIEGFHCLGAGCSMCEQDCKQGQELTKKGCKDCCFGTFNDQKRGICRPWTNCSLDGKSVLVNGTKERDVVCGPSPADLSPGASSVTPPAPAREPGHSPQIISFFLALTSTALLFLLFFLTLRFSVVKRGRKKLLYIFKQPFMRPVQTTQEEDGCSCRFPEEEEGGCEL
Description: as §1, §2

[5] = molecular target: T5, 1552: Human CD137 with mouse domains 2B, 3A and 3B (aa 64-118) (human; mouse, UniProt P20334 63-117); assay: as above
T5 construct: Human/mouse chimera transiently expressed on FreeStyle 293-F cells
T5 sequence (P20334 other isoform, or with tags, fused parts or gaps limits assumed): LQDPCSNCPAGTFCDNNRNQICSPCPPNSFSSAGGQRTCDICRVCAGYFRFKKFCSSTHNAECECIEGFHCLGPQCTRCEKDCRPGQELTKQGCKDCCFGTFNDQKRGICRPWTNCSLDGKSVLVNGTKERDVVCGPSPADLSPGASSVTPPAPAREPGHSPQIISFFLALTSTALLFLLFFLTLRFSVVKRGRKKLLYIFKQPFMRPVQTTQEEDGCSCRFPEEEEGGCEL
Description: as §1, §2

[6] = molecular target: T6, 1553: Human CD137 with mouse domains 3A, 3B and 4A (aa 87-133) (human; mouse, UniProt P20334 86-133); assay: as above
T6 construct: domain: domains 3A, 3B and 4A (aa 87-133); Human/mouse chimera transiently expressed on FreeStyle 293-F cells
T6 sequence (P20334 other isoform, or with tags, fused parts or gaps limits assumed): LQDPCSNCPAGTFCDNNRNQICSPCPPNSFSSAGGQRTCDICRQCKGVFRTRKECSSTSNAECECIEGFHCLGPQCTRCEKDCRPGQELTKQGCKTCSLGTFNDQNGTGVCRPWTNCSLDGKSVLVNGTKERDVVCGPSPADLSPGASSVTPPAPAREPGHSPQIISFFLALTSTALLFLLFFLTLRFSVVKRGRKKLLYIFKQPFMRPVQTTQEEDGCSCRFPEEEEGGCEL
Description: as §1, §2

[7] = molecular target: T7, 1554: Human CD137 with mouse domains 3B, 4A and 4B (aa 97-159) (human; mouse, UniProt P20334 96-159); assay: as above
T7 construct: domain: domains 3B, 4A and 4B (aa 97-159); Human/mouse chimera transiently expressed on FreeStyle 293-F cells
T7 sequence (P20334 other isoform, or with tags, fused parts or gaps limits assumed): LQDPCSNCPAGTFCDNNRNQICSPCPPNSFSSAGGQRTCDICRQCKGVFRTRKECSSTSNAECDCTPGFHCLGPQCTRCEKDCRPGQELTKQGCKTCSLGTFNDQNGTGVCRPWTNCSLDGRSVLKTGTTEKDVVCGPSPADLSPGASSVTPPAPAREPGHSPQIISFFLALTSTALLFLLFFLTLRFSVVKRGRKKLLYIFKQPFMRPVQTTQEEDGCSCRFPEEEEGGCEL
Description: as §1, §2

[8] = molecular target: T8, 1555: Human CD137 with mouse domains 1 and 4B and region of unknown function (aa 24-46 and aa 139-186) (human; mouse, UniProt P20334 24-45; P20334 139-185); assay: as above
T8 construct: Human/mouse chimera transiently expressed on FreeStyle 293-F cells
T8 sequence (P20334 other isoform, or with tags, fused parts or gaps limits assumed): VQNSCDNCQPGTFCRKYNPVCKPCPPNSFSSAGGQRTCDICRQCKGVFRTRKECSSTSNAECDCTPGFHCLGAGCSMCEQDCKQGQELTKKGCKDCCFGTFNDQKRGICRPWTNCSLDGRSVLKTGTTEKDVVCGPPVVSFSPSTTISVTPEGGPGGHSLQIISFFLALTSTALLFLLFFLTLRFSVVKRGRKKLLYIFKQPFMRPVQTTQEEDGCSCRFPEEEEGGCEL
Description: as §1, §2

[9] = molecular target: T2, cynomolgus CD137 on transfected CHO …; assay: flow cytometry on CHO-cyCD137 cells; 95% confidence interval of the EC50

Ratio, cyno:human [2]: 0.63
MFI antibody/isotype control, normalized to full-length human CD137 [3]: 0.11
MFI antibody/isotype control, normalized to full-length human CD137 [4]: 0.1
MFI antibody/isotype control, normalized to full-length human CD137 [5]: 0.25
MFI antibody/isotype control, normalized to full-length human CD137 [6]: 0.91
MFI antibody/isotype control, normalized to full-length human CD137 [7]: 0.85
MFI antibody/isotype control, normalized to full-length human CD137 [8]: 0.35
EC50 [9]: 0.12 to 0.16 µg/mL
B1: 1630/1631 (antibody, human IgG4 S228P, kappa, V domains shown)
VH: EVQLLESGGGLVQPGGSLRLSCAASGFTFGYSYMSWVRQAPGKGLEWVSSIGSGSSYTYYADSVKGRFTISRDNSKNTLYLQMNSLRAEDTAVYYCARVYSSPGIDYWGQGTLVTVSS
VL: DIQMTQSPSSLSASVGDRVTITCRASQSISSYLNWYQQKPGKAPKLLIYAASSLQSGVPSRFSGSGSGTDFTLTISSLQPEDFATYYCQQYYTWVPFTFGQGTKLEIKR
notes: the format in each assay is not restated
binding result [1]: no binding (tested: 10 µg/ml highest concentration tested)
